In the RNAGym collection of RNA variant scans (doi:10.7554/elife.80360) one finds self-cleavage data, which are given here for 167 variants.

First the molecules themselves.
B1: HDV Ribozyme (parent)
chain: GGCCGGCAUGGUCCCAGCCUCCUCGCUGGCGCCGGCUGGGCAACAUUCCGAGGGGACCGUCCCCUCGGUAAUGGCGAAUGGGACCCA

The data set covers variants of B1. The data set is described as follows: self-cleavage, relative activity (ratio to wild type); higher = more cleavage; co-transcriptional.
As to G38A G74A, the self-cleavage stood at 0.0755.

C49A U60A: the self-cleavage came to 0.745.

Consider G2C C30A, for which the self-cleavage was 0.0875.

For C7U C57U, the self-cleavage came out at 0.927.

Take C18U G52C: the self-cleavage stood at 0.774.

Turning to C4G C24G, the self-cleavage amounted to 0.0426.

Consider A71G C75G, for which the self-cleavage stood at 0.0755.

With C57A G59U, the self-cleavage was 1.11.

Regarding C4G G40U, the self-cleavage is 0.381.

Take C22G C58A: the self-cleavage turned out to be 0.

Consider C26G G67A, for which the self-cleavage stood at 0.696.

For C63U C85A, the self-cleavage came out at 0.958.

In the case of G5C G39C, the self-cleavage turned out to be 0.0462.

Regarding G5C G39U, the self-cleavage worked out at 0.0346.

Turning to G76U A87U, the self-cleavage was found to be 1.04.

For G11C C58U, the self-cleavage amounted to 0.242.

Regarding G29U C75G, the self-cleavage was determined as 0.116.

In the case of A43U C86A, the self-cleavage is 0.554.

As for C13U U60C, the self-cleavage was found to be 0.831.

Regarding C4G G74U, the self-cleavage was 0.111.

Turning to C14G C15A, the self-cleavage came out at 0.312.

In the case of A42G A45G, the self-cleavage is 0.383.

For the variant U9C A43C, the self-cleavage was 0.378.

As for C66A G68C, the self-cleavage was 0.453.

On to G38C U46A, for which the self-cleavage worked out at 0.101.

With U20C A43U, the self-cleavage is 0.0378.

Take C61U U72A: the self-cleavage is 0.703.

Consider G1A C66U, for which the self-cleavage was found to be 0.353.

In the case of C4U G67C, the self-cleavage is 0.739.

With G17U C24U, the self-cleavage is 0.146.

Take G6U G55C: the self-cleavage came to 0.495.

Regarding G6C G25A, the self-cleavage is 0.0898.

Take G73U A78G: the self-cleavage is 0.332.

Consider G10C U69C, for which the self-cleavage amounted to 1.21.

C36U A78U: the self-cleavage stood at 0.154.

Turning to C63A C75U, the self-cleavage was determined as 0.0906.

For G11A G76A, the self-cleavage was 0.578.

Turning to A8G G39A, the self-cleavage was 0.302.

Regarding G34C A83G, the self-cleavage came out at 0.0959.

Consider G34C A83C, for which the self-cleavage was 0.0898.

In the case of U9G C24U, the self-cleavage was determined as 0.767.

Consider C24G C26G, for which the self-cleavage was 0.277.

Turning to C66A A83U, the self-cleavage amounted to 0.225.

As to G40U C86G, the self-cleavage is 0.562.

On to G31U C62G, for which the self-cleavage was 0.19.

As for G35U C49A, the self-cleavage was 0.499.

C4U G28U: the self-cleavage was 0.0277.

G10C A77U: the self-cleavage turned out to be 0.0554.

As for C21G C75G, the self-cleavage was 0.0426.

On to C36A U79A, for which the self-cleavage is 0.0615.

As for A8G A16G, the self-cleavage stood at 1.14.

C57A G80C: the self-cleavage was determined as 0.166.

For the variant C44A G50A, the self-cleavage turned out to be 0.671.

For the variant G55C A78G, the self-cleavage amounted to 0.525.

C62U U72G: the self-cleavage came to 0.649.

In the case of C36A A78C, the self-cleavage amounted to 0.155.

A16G U27C: the self-cleavage was determined as 0.675.

With G6C C64A, the self-cleavage came out at 0.594.

As for G28A G31U, the self-cleavage came to 0.133.

As for C19A G29A, the self-cleavage is 0.

Regarding A8U U69G, the self-cleavage came to 0.59.

For the variant G5A G6C, the self-cleavage stood at 0.0536.

As to C33U G34A, the self-cleavage is 0.293.

For C49U A51U, the self-cleavage was 0.867.

C4G G38U: the self-cleavage is 0.0287.

G28C G82A: the self-cleavage stood at 0.0852.

Take G31C G50U: the self-cleavage turned out to be 0.208.

For U23A C30U, the self-cleavage stood at 0.554.

As to C4U G54C, the self-cleavage turned out to be 0.795.

With G55A C84A, the self-cleavage was 0.992.

C32U C85A: the self-cleavage was 0.849.

C33G C61G: the self-cleavage was 0.19.

With G10C C26A, the self-cleavage turned out to be 1.12.

Turning to G10C C26G, the self-cleavage is 1.14.

As for C4U C15A, the self-cleavage is 0.302.

In the case of G40A, the self-cleavage is 0.962.

On to G59C G76A, for which the self-cleavage was determined as 0.767.

Take C61G C66G: the self-cleavage was determined as 0.745.

As to C58U C86A, the self-cleavage worked out at 1.01.

Consider C15G U65A, for which the self-cleavage stood at 0.831.

Take G40U A51C: the self-cleavage was determined as 0.627.

A42C G81U: the self-cleavage was 0.16.

As to G55U G73C, the self-cleavage came to 0.499.

Take C4G C75U: the self-cleavage stood at 0.0396.

Regarding U46G G80C, the self-cleavage was 0.185.

Take G54C C61A: the self-cleavage is 0.926.

As to C57G C75A, the self-cleavage turned out to be 0.287.

Take U27G C66A: the self-cleavage worked out at 0.532.

Turning to C84A A87G, the self-cleavage turned out to be 0.61.

As for A16G C33G, the self-cleavage was determined as 0.19.

On to G39C C84G, for which the self-cleavage is 0.0462.

On to A8G A42G, for which the self-cleavage was found to be 0.68.

With U23C U65A, the self-cleavage worked out at 1.09.

Regarding C33G A45G, the self-cleavage stood at 0.447.

Turning to G10U C30U, the self-cleavage came to 0.137.

Consider G5U C64A, for which the self-cleavage amounted to 0.499.

With C26U G74A, the self-cleavage was 0.717.

For G29U C84U, the self-cleavage came out at 0.0594.

Take U65C G74U: the self-cleavage was 0.523.

Take G17U C22G: the self-cleavage came to 0.095.

Turning to U69A C84A, the self-cleavage stood at 0.935.

A8G C61U: the self-cleavage was 0.982.

Regarding C63A A78U, the self-cleavage came out at 0.269.

As for G17A A71C, the self-cleavage is 0.151.

On to G2U C4G, for which the self-cleavage turned out to be 0.0228.

Consider G10A G28U, for which the self-cleavage turned out to be 0.0848.

As for G34U G52C, the self-cleavage was determined as 0.101.

C22A C84G: the self-cleavage is 0.17.

Take G10A C58G: the self-cleavage is 0.939.

On to C44U U46G, for which the self-cleavage turned out to be 0.712.

As to C21U G28A, the self-cleavage turned out to be 0.0791.

Consider G38U G54U, for which the self-cleavage is 0.325.

For U27G A56U, the self-cleavage came to 0.692.

Regarding C14A G52U, the self-cleavage came out at 1.03.

On to G31U A70U, for which the self-cleavage was found to be 0.365.

A16G G35C: the self-cleavage was 0.138.

With C4G U79C, the self-cleavage was found to be 0.13.

On to G1C U27G, for which the self-cleavage was determined as 0.277.

Turning to G34U G73C, the self-cleavage is 0.289.

Consider G11A, for which the self-cleavage amounted to 0.42.

A8C G40A: the self-cleavage amounted to 0.511.

G35C G82C: the self-cleavage is 0.0519.

Consider C32G A87G, for which the self-cleavage stood at 0.0665.

Turning to G2C G35C, the self-cleavage turned out to be 0.124.

Turning to C15U C84A, the self-cleavage was 0.81.

With G11U C18G, the self-cleavage was found to be 0.158.

Turning to C41G G81A, the self-cleavage stood at 0.188.

With C14U C62G, the self-cleavage was determined as 0.751.

As for G39U C49G, the self-cleavage worked out at 0.665.

On to G34A A42U, for which the self-cleavage came out at 0.0326.

For C62U U79C, the self-cleavage amounted to 0.432.

In the case of A8G C75G, the self-cleavage came out at 0.525.

C4G G31U: the self-cleavage stood at 0.0282.

In the case of C13U U46C, the self-cleavage came to 0.138.

In the case of C24G G73U, the self-cleavage is 0.0841.

In the case of A56C C75U, the self-cleavage was found to be 0.0723.

Turning to G68A A87U, the self-cleavage was 0.831.

Turning to G11C G59C, the self-cleavage turned out to be 0.415.

In the case of C22G A51C, the self-cleavage is 0.116.

G6U U69A: the self-cleavage turned out to be 0.415.

Turning to C14G C61U, the self-cleavage came out at 0.598.

As for C4U C62U, the self-cleavage was found to be 0.656.

As to G25C G29A, the self-cleavage was determined as 0.155.

Regarding U9C U46A, the self-cleavage was found to be 1.06.

Regarding G28A C58U, the self-cleavage was 0.0228.

With U12G A77G, the self-cleavage turned out to be 0.443.

Regarding G55A U72A, the self-cleavage was determined as 0.917.

For G6C G80C, the self-cleavage was found to be 0.172.

As for U37C C75A, the self-cleavage amounted to 0.177.

For the variant G11C A56C, the self-cleavage worked out at 0.598.

Take C41A C64U: the self-cleavage was 0.831.

C32G A56C: the self-cleavage stood at 0.0739.

Consider C48U G76C, for which the self-cleavage worked out at 1.16.

On to G11C A51C, for which the self-cleavage amounted to 0.35.

For the variant G5U C62U, the self-cleavage worked out at 0.467.

On to A16G C19U, for which the self-cleavage was found to be 0.178.

In the case of G6A A77U, the self-cleavage turned out to be 0.18.

C61U G74U: the self-cleavage came to 0.554.

In the case of G31A A87G, the self-cleavage came to 0.352.

With G11C C44A, the self-cleavage amounted to 0.0923.

As to C13A C21A, the self-cleavage came out at 0.158.

On to C7A U72A, for which the self-cleavage turned out to be 0.308.

Turning to G40C C86G, the self-cleavage is 0.222.

U9G A42C: the self-cleavage was 0.453.

Consider G38U A77G, for which the self-cleavage was determined as 0.0923.

With G55U A77U, the self-cleavage is 0.453.

For the variant G2C A51G, the self-cleavage came to 0.0831.
